{"source": "patent US20230012273A1", "about": "(Boehringer Ingelheim, published 2023)", "binders": {"B1": {"name": "Antibody E (antibody, human IgG1, kappa, L234A L235A)", "heavy": "not shown", "light": "DIVMTQSPLSLPVTPGEPASISCKSSQSLLYSNGYNYLDWYLQRPGQSPQLLIYLGSNRASGVPDRFSGSGSGTDFTLKISRVEAEDVGVFYCMQALQTPLTFGGGTKVEIKRTVAAPSVFIFPPSDEQLKSGTASVVCLLNNFYPREAKVQWKVDNALQSGNSQESVTEQDSKDSTYSLSSTLTLSKADYEKHKVYACEVTHQGLSSPVTKSFNRGEC"}, "B2": {"name": "Antibody G (antibody, human IgG4 S228P, kappa)", "heavy": "not shown", "light": "B1 light"}, "B3": {"name": "Antibody A11 (antibody, human IgG4 S228P, kappa)", "heavy": "not shown", "light": "DIQMTQSPSSLSASVGDRVTITCRASQDINNYLAWFQQKPGKAPKSLIYTASSLHSGVPSKFSGSGSGTDFTLTISSLQPEDFATYYCQQYVSYPYTFGQGTKLEIKRTVAAPSVFIFPPSDEQLKSGTASVVCLLNNFYPREAKVQWKVDNALQSGNSQESVTEQDSKDSTYSLSSTLTLSKADYEKHKVYACEVTHQGLSSPVTKSFNRGEC"}, "B4": {"name": "anti-SIRPα antibody SIRP AB11 (antibody, V domains shown)", "VH": "QVQLVQSGAEVKKPGASVKVSCKASGYTFRGYGISWVRQAPGQGLEWMGWISAYGGETNYAQKLQGRVTMTTDTSTSTAYMELRSLRSDDTAVYYCAREAGSSWYDFDLWGRGTLVTVSS", "VL": "DIQMTQSPSSVSASVGDRVTITCRASQGISSWLAWYQQKPGKAPKLLIYAASNLQSGVPSRFSGSGSGTDFTLTISSLQPEDFATYYCQQGASFPITFGGGTKVEIKR"}}, "key": {"[1]": {"target": "T1, mouse SIRPα extracellular domain + His-tag (NP_031573) (mouse, UniProt P97797 32-373)", "T1 chain": "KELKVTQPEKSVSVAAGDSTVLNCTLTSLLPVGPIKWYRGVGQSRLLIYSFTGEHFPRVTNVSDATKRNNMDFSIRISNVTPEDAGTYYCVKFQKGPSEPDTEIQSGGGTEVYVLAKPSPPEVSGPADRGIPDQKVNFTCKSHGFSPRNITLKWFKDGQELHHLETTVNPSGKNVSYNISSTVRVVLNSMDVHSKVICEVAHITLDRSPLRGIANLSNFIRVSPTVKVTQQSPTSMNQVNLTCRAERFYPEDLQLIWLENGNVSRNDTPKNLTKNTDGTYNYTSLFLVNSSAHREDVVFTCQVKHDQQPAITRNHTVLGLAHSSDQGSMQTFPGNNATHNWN", "experiment": "SPR, Ab captured, ECD-His analyte", "procedure": "The binding affinity of anti-SIRPα antibodies to the various SIRPα analytes is determined by surface plasmon resonance (SPR) using a ProteOn XPR36 (Bio-Rad). The running buffer for this experiment and all dilutions (except where stated) are done in 1×HBS-EP+. […] The sensorchip is deactivated with 1M ethanolamine HCl for 420 sec at a flowrate of 10 μl/min.\nThe analyte is injected over the captured antibody for 300 sec at a flowrate of 30 μl/min. The dissociation is done for 600 sec. Two-fold serial dilutions of each SIRP protein (Extracellular Domain+His-Tag) are injected as analyte with the highest concentrations indicated in table 36 below."}, "[2]": {"target": "full-length human SIRPβ1 D→H on Expi-CHO cells (human, UniProt O00241 30-398)", "sequence (O00241 30-398 D130H)": "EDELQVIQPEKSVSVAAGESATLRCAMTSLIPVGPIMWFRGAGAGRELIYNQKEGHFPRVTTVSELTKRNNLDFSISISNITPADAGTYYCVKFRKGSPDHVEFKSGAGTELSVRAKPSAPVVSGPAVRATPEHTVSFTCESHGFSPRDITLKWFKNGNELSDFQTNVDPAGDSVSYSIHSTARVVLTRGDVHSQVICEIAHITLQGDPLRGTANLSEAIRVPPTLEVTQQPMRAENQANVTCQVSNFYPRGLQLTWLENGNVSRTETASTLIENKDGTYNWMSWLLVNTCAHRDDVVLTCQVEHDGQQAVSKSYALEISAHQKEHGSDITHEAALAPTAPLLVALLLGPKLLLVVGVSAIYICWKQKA", "experiment": "flow cytometry, Expi-CHO cells", "procedure": "These cells are blocked with donkey IgG and incubated on ice with increasing concentrations of antibodies for 60 minutes, washed and stained with AF647-conjugated donkey F(ab′)₂ anti-human IgG antibodies. Stained cells are washed, fixed, and analyzed by flow cytometry. Median fluorescent intensity is determined and used as a measure of antibody binding."}, "[3]": {"target": "T2, human SIRPαV2 extracellular domain + His-tag (CAA71403.1) (human, UniProt P78324 31-373)", "T2 construct": "also called hSIRPαV2; HuSIRPαV2", "T2 sequence (P78324 other isoform, or with tags, fused parts or gaps)": "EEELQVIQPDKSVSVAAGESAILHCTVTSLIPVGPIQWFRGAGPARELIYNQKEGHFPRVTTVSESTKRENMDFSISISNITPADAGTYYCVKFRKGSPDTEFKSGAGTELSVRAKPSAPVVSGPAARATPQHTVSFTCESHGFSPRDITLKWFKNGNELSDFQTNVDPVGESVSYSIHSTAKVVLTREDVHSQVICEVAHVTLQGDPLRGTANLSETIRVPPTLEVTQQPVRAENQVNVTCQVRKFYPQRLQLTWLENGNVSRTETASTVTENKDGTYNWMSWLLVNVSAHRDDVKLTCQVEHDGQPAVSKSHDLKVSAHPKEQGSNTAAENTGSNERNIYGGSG", "experiment": "SPR, Ab captured, ECD-His analyte", "outline": "(§1)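 In HBS-EP+ (1×), captured antibodies are exposed to a twofold concentration series of SIRP extracellular domain carrying a His tag, using 300 s contact at 30 μl/min and a 600 s dissociation window.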"}, "[4]": {"target": "T3, human SIRPβL/SIRPβ1v3 extracellular domain + His-tag (NP_001129316.1) (human, UniProt Q5TFQ8 30-371)", "T3 construct": "also called hSIRPβ1v3; HuSIRPβ1v3", "T3 sequence (Q5TFQ8 other isoform, or with tags, fused parts or gaps)": "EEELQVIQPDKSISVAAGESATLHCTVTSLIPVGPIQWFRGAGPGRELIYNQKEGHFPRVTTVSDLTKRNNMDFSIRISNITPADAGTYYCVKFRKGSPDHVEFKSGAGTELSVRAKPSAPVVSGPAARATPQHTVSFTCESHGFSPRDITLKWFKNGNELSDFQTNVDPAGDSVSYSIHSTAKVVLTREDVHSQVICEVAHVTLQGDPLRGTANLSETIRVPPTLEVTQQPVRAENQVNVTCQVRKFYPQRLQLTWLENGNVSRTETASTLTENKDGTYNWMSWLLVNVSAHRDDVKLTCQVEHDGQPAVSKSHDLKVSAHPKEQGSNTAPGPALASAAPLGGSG", "experiment": "SPR, Ab captured, ECD-His analyte", "outline": "as §1"}, "[5]": {"target": "T4, human SIRPαV1 extracellular domain + His-tag (NP_542970.1) (human, UniProt P78324 31-373)", "T4 construct": "also called hSIRPαV1; HuSIRPαV1", "T4 sequence (P78324 other isoform, or with tags, fused parts or gaps)": "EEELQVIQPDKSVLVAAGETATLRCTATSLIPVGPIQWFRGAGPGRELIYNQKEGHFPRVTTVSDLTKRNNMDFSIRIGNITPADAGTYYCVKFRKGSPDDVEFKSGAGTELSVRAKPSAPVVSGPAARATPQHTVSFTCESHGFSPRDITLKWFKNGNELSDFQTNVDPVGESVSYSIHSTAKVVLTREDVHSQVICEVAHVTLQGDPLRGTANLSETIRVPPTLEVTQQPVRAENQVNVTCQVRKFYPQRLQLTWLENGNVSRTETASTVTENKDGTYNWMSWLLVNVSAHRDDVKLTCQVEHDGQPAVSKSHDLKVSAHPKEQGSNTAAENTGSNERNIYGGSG", "experiment": "SPR, Ab captured, ECD-His analyte", "outline": "as §1"}, "[6]": {"target": "T5, human SIRPβ1 extracellular domain + His-tag (NP_006056.2) (human, UniProt O00241 30-371)", "T5 construct": "also called hSIRPβ1; HuSIRPβ1", "T5 sequence (O00241 other isoform, or with tags, fused parts or gaps)": "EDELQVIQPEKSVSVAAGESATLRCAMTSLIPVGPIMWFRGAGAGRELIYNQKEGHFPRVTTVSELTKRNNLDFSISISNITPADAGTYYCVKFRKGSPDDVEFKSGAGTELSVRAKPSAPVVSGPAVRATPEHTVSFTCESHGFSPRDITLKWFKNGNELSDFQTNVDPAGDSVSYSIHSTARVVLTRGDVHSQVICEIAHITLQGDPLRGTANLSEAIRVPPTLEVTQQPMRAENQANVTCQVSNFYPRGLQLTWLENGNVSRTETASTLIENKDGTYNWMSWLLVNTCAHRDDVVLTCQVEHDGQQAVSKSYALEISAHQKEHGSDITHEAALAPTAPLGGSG", "experiment": "SPR, Ab captured, ECD-His analyte", "outline": "as §1"}, "[7]": {"target": "T6, human SIRPγ extracellular domain + His-tag (NP_061026.2) (human, UniProt Q9P1W8 29-360)", "T6 construct": "also called hSIRPγ; HuSIRPγ", "T6 sequence (Q9P1W8 29-360)": "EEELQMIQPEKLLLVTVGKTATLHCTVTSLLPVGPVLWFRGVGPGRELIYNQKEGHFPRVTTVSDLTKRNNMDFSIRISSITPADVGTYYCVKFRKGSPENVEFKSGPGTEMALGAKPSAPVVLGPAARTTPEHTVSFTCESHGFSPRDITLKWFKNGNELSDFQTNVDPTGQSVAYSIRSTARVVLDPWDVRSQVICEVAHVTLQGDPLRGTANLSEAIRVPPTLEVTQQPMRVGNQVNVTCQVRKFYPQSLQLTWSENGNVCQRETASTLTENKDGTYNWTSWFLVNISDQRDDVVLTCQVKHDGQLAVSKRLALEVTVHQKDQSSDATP", "experiment": "SPR, Ab captured, ECD-His analyte", "outline": "as §1"}, "[8]": {"target": "T2, human SIRPαV2 extracellular domain + …", "experiment": "SPR, Ab captured, ECD-His analyte", "outline": "as §1", "remark": "listed apart in the source"}, "[9]": {"target": "T3, human SIRPβL/SIRPβ1v3 extracellular …", "experiment": "SPR, Ab captured, ECD-His analyte", "outline": "as §1", "remark": "listed apart in the source"}, "[10]": {"target": "T4, human SIRPαV1 extracellular domain + …", "experiment": "SPR, Ab captured, ECD-His analyte", "outline": "as §1", "remark": "listed apart in the source"}, "[11]": {"target": "T5, human SIRPβ1 extracellular domain + …", "experiment": "SPR, Ab captured, ECD-His analyte", "outline": "as §1", "remark": "listed apart in the source"}, "[12]": {"target": "T7, full-length human SIRPγ (NP_061026.2) on cells (human, UniProt Q9P1W8 29-387)", "T7 construct": "on CHO and Expi-CHO cells; endogenous on primary human CD3+ T cells; also called γ WT", "experiment": "flow cytometry, primary human CD3+ T cells", "procedure": "(§2) Antibody binding to primary human T cells expressing endogenous SIRPγ is evaluated by flow cytometry. Human peripheral blood mononuclear cells (PBMCs) are blocked with donkey IgG and incubated on ice with increasing concentrations of antibody for 60 minutes, washed and stained with AF647-conjugated donkey F(ab′)₂ anti-human IgG secondary reagent. […] Cells are washed, fixed, and analyzed by flow cytometry. Median fluorescent intensity of CD3+ gated population is determined and used as a measure of antibody binding.", "T7 sequence (Q9P1W8 29-387)": "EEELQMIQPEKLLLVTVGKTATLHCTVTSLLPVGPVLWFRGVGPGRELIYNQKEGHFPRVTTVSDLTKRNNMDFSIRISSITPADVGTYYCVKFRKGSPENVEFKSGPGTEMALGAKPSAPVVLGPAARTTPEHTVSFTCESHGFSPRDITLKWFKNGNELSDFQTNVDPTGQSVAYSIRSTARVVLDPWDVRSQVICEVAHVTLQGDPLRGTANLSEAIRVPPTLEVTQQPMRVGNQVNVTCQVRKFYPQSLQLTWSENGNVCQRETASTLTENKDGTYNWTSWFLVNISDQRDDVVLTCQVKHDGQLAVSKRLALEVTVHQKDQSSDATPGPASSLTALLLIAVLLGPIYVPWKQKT"}, "[13]": {"target": "T8, full-length human SIRPγ (NP_061026.2) on cells (human, UniProt Q9P1W8 29-387)", "T8 construct": "also called CHO-hSIRPγ; γ WT", "experiment": "flow cytometry, primary CD3+ T cells", "procedure": "as §2", "T8 sequence (Q9P1W8 29-387)": "as above"}, "[14]": {"target": "T9, full-length human SIRPβ1 (NP_006056.2) on cells (human, UniProt O00241 30-398)", "T9 construct": "also called β1 WT", "T9 sequence (O00241 30-398)": "as the sequence (O00241 30-398 D130H) above, with H101D counted along it", "experiment": "flow cytometry, U937 SIRPα-KO transfectants", "procedure": "(§3) Antibody binding to cells expressing full-length human SIRPβ1 (NP_006056.2) and SIRPβL (NP_001129316.1) is evaluated by flow cytometry. SIRPβ1- or SIRPβL-expressing U937^{SIRPα KO} cells are blocked with donkey IgG and incubated on ice with increasing concentrations of antibodies for 60 minutes, washed and stained with AF647-conjugated donkey F(ab′)₂ anti-human IgG secondary reagent. Cells are washed, fixed, and analyzed by flow cytometry. Median fluorescent intensity is determined and used as a measure of antibody binding."}, "[15]": {"target": "ED-tagged human SIRPα V2 receptor on Jurkat signaling reporter cells (human, UniProt P78324 31-504)", "experiment": "cell-based or functional assay"}, "[16]": {"target": "ED-tagged human SIRPα V1 receptor on Jurkat signaling reporter cells (human, UniProt P78324 31-504)", "experiment": "cell-based or functional assay"}, "[17]": {"target": "T10, full-length human SIRPβL (NP_001129316.1) on cells (human, UniProt Q5TFQ8 30-398)", "T10 construct": "one molecule for U937 SIRPα-KO transfectants (NP_001129316.1) and Expi-CHO transfectants (Q5TFQ8); also called SIRPβ1v3; βL WT", "T10 sequence (Q5TFQ8 30-398)": "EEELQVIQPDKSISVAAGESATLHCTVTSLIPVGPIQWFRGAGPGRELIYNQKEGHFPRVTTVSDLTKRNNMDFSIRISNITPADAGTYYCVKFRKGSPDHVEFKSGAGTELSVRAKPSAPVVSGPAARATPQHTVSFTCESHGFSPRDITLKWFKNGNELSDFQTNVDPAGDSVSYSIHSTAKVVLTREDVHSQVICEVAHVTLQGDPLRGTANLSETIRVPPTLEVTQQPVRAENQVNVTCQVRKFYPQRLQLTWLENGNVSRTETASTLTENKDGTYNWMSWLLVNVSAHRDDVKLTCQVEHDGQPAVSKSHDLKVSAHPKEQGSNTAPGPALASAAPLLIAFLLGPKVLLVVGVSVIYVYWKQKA", "experiment": "flow cytometry, U937 SIRPα-KO cells expressing full-length human SIRPβL", "procedure": "as §3"}, "[18]": {"target": "T11, full-length human SIRPαV2 (CAA71403.1) on cells (human, UniProt P78324 31-504)", "T11 construct": "one molecule for CHO-K1 and Expi-CHO transfectants (CAA71403.1) and for endogenous V2 on THP-1 cells and on CD14+ monocytes of V2/V2 donors; also called CHO-hSIRPαV2; αV2 WT", "T11 sequence (P78324 other isoform, or with tags, fused parts or gaps)": "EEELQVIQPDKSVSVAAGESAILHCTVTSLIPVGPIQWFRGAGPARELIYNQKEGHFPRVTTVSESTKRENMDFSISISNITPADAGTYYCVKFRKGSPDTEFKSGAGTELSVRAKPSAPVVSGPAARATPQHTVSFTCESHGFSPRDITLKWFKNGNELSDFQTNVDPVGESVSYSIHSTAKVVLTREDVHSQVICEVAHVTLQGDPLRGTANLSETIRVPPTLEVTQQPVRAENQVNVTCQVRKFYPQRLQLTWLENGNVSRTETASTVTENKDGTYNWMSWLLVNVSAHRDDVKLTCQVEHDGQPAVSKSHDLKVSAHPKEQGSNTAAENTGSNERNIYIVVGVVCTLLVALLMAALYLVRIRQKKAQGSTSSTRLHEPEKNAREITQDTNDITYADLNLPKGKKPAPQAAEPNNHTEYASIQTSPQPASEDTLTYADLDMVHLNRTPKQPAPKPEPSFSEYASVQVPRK", "experiment": "flow cytometry, competition with CD47 tetramer, monocytes V2V2", "procedure": "(§4) Cells are washed, fixed, and analyzed by flow cytometry. Median fluorescent intensity of CD14+gated population is determined and used as a measure of CD47 binding."}, "[19]": {"target": "T12, full-length human SIRPαV1 (NP_542970.1) on cells (human, UniProt P78324 31-504)", "T12 construct": "one molecule for CHO-K1 and Expi-CHO transfectants (NP_542970.1) and for endogenous V1 on U-937 cells and on CD14+ monocytes of V1/V1 donors; also called CHO-hSIRPαV1; αV1 WT", "T12 sequence (P78324 31-504)": "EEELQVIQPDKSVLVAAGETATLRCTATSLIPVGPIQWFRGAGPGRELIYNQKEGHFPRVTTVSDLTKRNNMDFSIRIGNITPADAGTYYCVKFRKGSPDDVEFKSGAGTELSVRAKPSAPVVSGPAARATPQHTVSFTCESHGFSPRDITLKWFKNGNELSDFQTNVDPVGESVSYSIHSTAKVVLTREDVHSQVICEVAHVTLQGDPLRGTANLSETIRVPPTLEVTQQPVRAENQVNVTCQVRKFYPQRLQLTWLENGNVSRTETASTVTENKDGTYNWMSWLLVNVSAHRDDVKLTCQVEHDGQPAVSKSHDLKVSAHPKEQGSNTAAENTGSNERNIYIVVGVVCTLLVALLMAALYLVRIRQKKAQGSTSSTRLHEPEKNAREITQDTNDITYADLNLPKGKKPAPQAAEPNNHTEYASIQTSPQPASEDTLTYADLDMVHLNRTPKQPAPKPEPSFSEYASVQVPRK", "experiment": "flow cytometry, competition with CD47 tetramer, monocytes V1V1", "procedure": "as §4"}, "[20]": {"target": "T10, full-length human SIRPβL …", "experiment": "flow cytometry, U937 SIRPα-KO transfectants", "procedure": "as §3"}, "[21]": {"target": "T12, full-length human SIRPαV1 (NP_542970.1) …", "experiment": "flow cytometry, CD14+ monocytes V1V1", "procedure": "as §2, with “human” for “human T”, “expressing SIRPα” for “expressing endogenous SIRPγ”, “(PBMCs) from donors genotyped as homozygous for the SIRPα V1 allele, V2 allele, or heterozygous for both alleles” for “(PBMCs)”, “of the CD14+” for “of CD3+ gated”, “population was” for “population is”"}, "[22]": {"target": "T11, full-length human SIRPαV2 (CAA71403.1) …", "experiment": "flow cytometry, CD14+ monocytes V2V2", "procedure": "as §2, with “human” for “human T”, “expressing SIRPα” for “expressing endogenous SIRPγ”, “(PBMCs) from donors genotyped as homozygous for the SIRPα V1 allele, V2 allele, or heterozygous for both alleles” for “(PBMCs)”, “of the CD14+” for “of CD3+ gated”, “population was” for “population is”"}}, "note": "Where two headings read alike, the source gives them in different places."}
{"binder": "B1", "values": [{"measurement": "binding result", "setting": "[1]", "result": "no binding"}, {"measurement": "binding result", "setting": "[2]", "result": "no binding"}, {"measurement": "Kd", "setting": "[3]", "result": 0.33, "unit": "nM"}, {"measurement": "Kd", "setting": "[4]", "result": 0.81, "unit": "nM"}, {"measurement": "Kd", "setting": "[5]", "result": 0.425, "unit": "nM"}, {"measurement": "Kd", "setting": "[6]", "result": 771, "unit": "nM"}, {"measurement": "binding result", "setting": "[7]", "result": "no binding (tested: 1000 nM)"}, {"measurement": "Kd", "setting": "[8]", "result": 0.42, "unit": "nM"}, {"measurement": "Kd", "setting": "[9]", "result": 1.16, "unit": "nM"}, {"measurement": "Kd", "setting": "[10]", "result": 0.456, "unit": "nM"}, {"measurement": "Kd", "setting": "[11]", "result": 1230, "unit": "nM"}]}
{"binder": "B2", "values": [{"measurement": "binding result", "setting": "[1]", "result": "no binding"}, {"measurement": "binding result", "setting": "[12]", "result": "no binding"}, {"measurement": "binding result", "setting": "[7]", "result": "no binding (tested: 1000 nM)"}, {"measurement": "Kd", "setting": "[8]", "result": 0.465, "unit": "nM"}, {"measurement": "Kd", "setting": "[9]", "result": 1.27, "unit": "nM"}, {"measurement": "Kd", "setting": "[10]", "result": 0.497, "unit": "nM"}, {"measurement": "Kd", "setting": "[11]", "result": 1270, "unit": "nM"}]}
{"binder": "B3", "values": [{"measurement": "binding result", "setting": "[13]", "result": "no binding"}, {"measurement": "EC50", "setting": "[14]", "result": 0.3, "unit": "nM"}, {"measurement": "Blockade of Cellular CD47-Mediated SIRPα Signaling; IC50", "setting": "[15]", "result": 0.02, "unit": "nM"}, {"measurement": "Blockade of Cellular CD47-Mediated SIRPα Signaling; IC50", "setting": "[16]", "result": 0.04, "unit": "nM"}, {"measurement": "binding result", "setting": "[17]", "result": "no binding (tested: about 200 nM)"}]}
{"binder": "B4", "values": [{"measurement": "EC50", "setting": "[13]", "result": 0.02, "unit": "nM"}, {"measurement": "IC50", "setting": "[18]", "result": 0.05, "unit": "nM"}, {"measurement": "IC50", "setting": "[19]", "result": 0.02, "unit": "nM"}, {"measurement": "EC50", "setting": "[14]", "result": 0.1, "unit": "nM"}, {"measurement": "EC50", "setting": "[20]", "result": 0.2, "unit": "nM"}, {"measurement": "EC50", "setting": "[21]", "result": 0.1, "unit": "nM"}, {"measurement": "EC50", "setting": "[22]", "result": 0.1, "unit": "nM"}]}
